{"source": "paper PMC11464976", "about": "“Insights into structure and activity of a UDP-GlcNAc 2-epimerase involved in secondary cell wall polymer biosynthesis in Paenibacillus alvei” (Frontiers in Molecular Biosciences, 2024)", "test_in_all_cases": "purified protein", "assay_type_in_all_cases": "biochemical, Paenibacillus alvei", "key": {"[1]": {"tested_on": "T1, CC(=O)N[C@H]1[C@@H](OP(=O)(O)OP(=O)(O)OC[C@H]2O[C@@H](n3ccc(=O)[nH]c3=O)[C@H](O)[C@@H]2O)O[C@H](CO)[C@@H](O)[C@@H]1O", "T1 construct": "amino acids 1-384, Leu-Glu linker and C-terminal His6 tag, pET22b(+), E. coli BL21(DE3), Ni-NTA", "conditions": "forward reaction, 10 mM sodium phosphate pH 8.0, 50 mM MgCl2, 30 °C, apparent constant"}, "purified protein [2]": {"substrate": "CC(=O)N[C@@H]1[C@@H](OP(=O)(O)OP(=O)(O)OC[C@H]2O[C@@H](n3ccc(=O)[nH]c3=O)[C@H](O)[C@@H]2O)O[C@H](CO)[C@@H](O)[C@@H]1O", "conditions": "reverse reaction, 10 mM sodium phosphate pH 8.0, 50 mM MgCl2, 30 °C, 45 min, apparent constant"}, "purified protein [3]": {"substrate": "CC(=O)N[C@H]1[C@@H](OP(=O)(O)OP(=O)(O)OC[C@H]2O[C@@H](n3ccc(=O)[nH]c3=O)[C@H](O)[C@@H]2O)O[C@H](CO)[C@@H](O)[C@@H]1O", "conditions": "forward reaction, 10 mM sodium phosphate pH 8.0, 50 mM MgCl2, 30 °C, 5 min, apparent constant"}, "[4]": {"conditions": "kcat 0.05 in text fits printed kcat/Km 0.03, table prints 0.53"}}, "data": [{"molecule": "PaMnaA (MnaA.His6) (Paenibacillus alvei; H241A)", "values": [{"measurement": "Km", "setting": "[1]", "result": 3.27, "unit": "mM"}, {"measurement": "kcat", "setting": "[1]", "result": 0.53, "unit": "s⁻¹"}, {"measurement": "kcat/Km", "setting": "[1]", "result": 160, "unit": "M⁻¹ s⁻¹"}]}, {"molecule": "PaMnaA (MnaA.His6) (Paenibacillus alvei; Q42A)", "values": [{"measurement": "Km", "setting": "[1]; [4]", "result": 1.61, "unit": "mM"}, {"measurement": "kcat", "setting": "[1]; [4]", "result": 0.05, "unit": "s⁻¹"}, {"measurement": "kcat/Km", "setting": "[1]; [4]", "result": 30, "unit": "M⁻¹ s⁻¹"}]}, {"molecule": "PaMnaA (MnaA.His6) (Paenibacillus alvei; Q69A)", "values": [{"measurement": "Km", "setting": "[1]", "result": 8.92, "unit": "mM"}, {"measurement": "kcat", "setting": "[1]", "result": 37.9, "unit": "s⁻¹"}, {"measurement": "kcat/Km", "setting": "[1]", "result": 4250, "unit": "M⁻¹ s⁻¹"}]}, {"molecule": "PaMnaA (MnaA.His6) (Paenibacillus alvei) (protein, amino acids 1-384, Leu-Glu linker and C-terminal His6 tag, pET22b(+), E. coli BL21(DE3), Ni-NTA) MSKVKVMTVFGVRPEAIKMAPLILELQKHPEHIESIVCVTAQHRQMLDQVLDVFNIKPDYDLDIMQARQTLNDISVRVLQGLEPVLQEAKPDIVLVHGDTLTTFLASYAAFMQQIKVGHVEAGLRTWNKLSPFPEEMNRQLTGVLADLHFAPTDWSASNLRKENKQDASIFVTGNTVTDVFQYTVRSDYKHEVLDWAQGKRLVLMTAHRRESQGEPHRNIFRAVRRIADEFEDIAIVYPVHPSPAVREPAHEMLGDHPRIKLIDPLDVVDLHNFYPHTHLILTDSGGLQEEAPSFGIPVLVLRETTERPEGIDAGTLELVGTDEEKVYARAKALLSDETTYARMSKAANPYGDGKASQRIVSAILHSFGVLEERPEPFHTKFTN", "values": [{"measurement": "Km", "setting": "purified protein [2]", "result": 2.41, "unit": "mM"}, {"measurement": "kcat", "setting": "purified protein [2]", "result": 6.02, "unit": "s⁻¹"}, {"measurement": "Km", "setting": "purified protein [3]", "result": 3.91, "unit": "mM"}, {"measurement": "kcat", "setting": "purified protein [3]", "result": 33.4, "unit": "s⁻¹"}, {"measurement": "kcat/Km", "setting": "purified protein [3]", "result": 8560, "unit": "M⁻¹ s⁻¹"}]}]}
